Biological target: the molecule itself
Experiment: crystal structure

B1: Cdc10_(Δ1-10) (domain or fragment)
chain: SYVGFDTITNQIEHRLLKKGFQFNIMVVGQSGLGKSTLINTLFASHLIDSATGDDISALPVTKTTEMKISTHTLVEDRVRLNINVIDTPGFGDFIDNSKAWEPIVKYIKEQHSQYLRKELTAQRERFITDTRVHAILYFLQPNGKELSRLDVEALKRLTEIANVIPVIGKSDTLTLDERTEFRELIQNEFEKYNFKIYPYDSEELTDEELELNRSVRSIIPFAVVGSENEIEINGETFRGRKTRWSAINVEDINQCDFVYLREFLIRTHLQDLIETTSYIHYEGFRARQLIALKENANSRSSAHMSSNAIQR
binding result: binds

— paper doi:10.1101/2023.04.22.537027 (bioRxiv, 2023)
